In US20190374506:

System: Flag-PTEN

Substance: WW domain containing E3 ubiquitin protein ligase 1 (WWP1)
- in vitro ubiquitination of Flag-PTEN (E1, E2, ubiquitin; western blot with anti-PTEN antibody), WWP1 alone: incubation of WWP1 alone only slightly triggered PTEN poly-ubiquitination
- in vitro ubiquitination of Flag-PTEN, WWP1 and NEDD4-1 both present: in the presence of both WWP1 and NEDD4-1, PTEN was robustly K27-linked poly-ubiquitinated
